Laboratory results as given in the supplement of paper PMC9170038.

Tested on: MS2 coat protein
Experiment: apparent KD of MS2 coat protein; designed switch direction (-1 OFF switch, 1 ON switch): -1; higher = weaker reporter binding
Procedure, shortened: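 The buffer was Tris-HCl pH 7.5 with KCl, MgCl2, BSA, DTT, tRNA and Tween-20. In it, SNAP-549-labelled MS2 coat protein was titrated in doubling steps from 0.7 or 1.5 nM to 3 µM over chip-bound RNA switches transcribed by stalled E. coli RNA polymerase on Illumina chips. Apparent KD is the per-design median over clusters of curve fits to normalised fluorescence.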

[1] = Eterna round: R95, input ligand: FMN 200 uM
[2] = Eterna round: R95, input ligand: microRNA oligo, concentration not stated
[3] = Eterna round: R95, input ligand: none
[4] = input ligand: microRNA oligo, concentration not stated

| Sequence | apparent KD of MS2 coat protein [1] [nM] | apparent KD of MS2 coat protein [2] [nM] | apparent KD of MS2 coat protein [3] [nM] | apparent KD of MS2 coat protein (input ligand: FMN 200 uM) [nM] | apparent KD of MS2 coat protein (input ligand: none) [nM] | apparent KD of MS2 coat protein [4] [nM] |
| --- | --- | --- | --- | --- | --- | --- |
| AGAAAGGAAGGAUAUACAAGAAAGCUGGGCAACGUCUCAUAACAUGAGGAUCACCCAUGUAGAAGGUCCAGGAA [Tiusredi] (puzzle: Exclusion 2) | 35.7 | 21.2 | 19.3 |  |  |  |
| CCUCACCGAGGAUAUACAUGAGGAUCACCCAUGUGAUCCUAAGGCUGAUCAAGCCUAUGUAGAAGGCGCAAAUC [salish99_ex3_r4_005] (Eterna round: R97, puzzle: Exclusion 3) |  |  |  | 1010 | 765 |  |
| GGAACUGGAGGAUAUACAUGAGGAUCACCCAUGUAUAGAUAUGGUUAUUAGCCUCAUAGUAGAAGGUUAGUGGC [EX3 C.4] (Eterna round: R97, puzzle: Exclusion 3) |  |  |  | 21.6 | 20.1 |  |
| ACCUUAAAAGUGAGGAUAUCUAGGGCCAAAUGGCCGGAGAAGGCACAUGAGGAUCACCCAUGUAACGCCAUGGA [Beinat] (puzzle: Brourd's mod of Exclusion 4) |  | 13.9 |  |  |  |  |
| UAAUAAAGUGUGAGGAUAUGCUGGUCGAUAGAUCAGCAGAAGGCACAUGAGGAUCACCCAUGUAAUAUAUAAAU [Mat - Exclusion 4 - JL Mod - D58] (puzzle: Brourd's mod of Exclusion 4) | 258 | 40.9 | 45 |  |  |  |
| GCGGACUAGAUCGUGAGAUCUGAGACAUGAGGAUCACCCAUGUAGGAUAUCGAUUCGAAACGAAUCGAGAAGGGCAUAGUCCGC [JL denovo 8] (Eterna round: R96, puzzle: Exclusion NG 3) |  |  |  | 23.1 | 22 | 16 |
| CAACAUGGACCUCGCUCCGACAUGAGGAUCACCCAUGUUGGAACCUUACUGGCGUCGAGUGUUGCUCGUCUUACCGU [Eternabot (Original) Solution 10] (Eterna round: R97, puzzle: Sensor, turn-off variant 1) |  |  |  | 189 | 268 |  |
| UACAUGAGGAUCACCCAUGUACCUUAUGUAAGAGUGGGAAGUAAGGAUAUAUAUGAAGGAAUGAAAUAGAAGGUGCAUAGAGAG [Default title] (Eterna round: R96, puzzle: Exclusion NG 3) |  |  |  | 121 | 93.3 | 97.4 |
| AAUUUACAUGAGGAUCACCCAUGUGAGGAUAUGGUUUCGCUGGCCGUAGCCAGUGGAACCAGAAGGCGCAUGAU [Mat - Exclusion 1 - JL Mod - D12] (Eterna round: R97, puzzle: Exclusion 1) |  |  |  | 283 | 65.2 |  |
| AUUAAAACAUAGGAUAUCGAAUUUAUUAUUUAACGAGAAGGAUGAACAUGAGGAUCACCCAUGUGGUAUCAUGG [Mat - Exclusion 6 - JL Mod - D26] (puzzle: Exclusion 6) |  | 202 |  |  |  |  |
| ACAAGCAUUUAUAUUUUAAAAUUUUAUCGUCUUAUAAUUACAUGAGGAUCACCCAUGUAUAAAGGGUGAAUAAUAAU [JR_Sensorv2_tov2_Sub550] (Eterna round: R96, puzzle: Sensor v2, turn-off variant 2) |  |  |  | 93.9 | 91.8 | 203 |
| AAGAAACAUGAGGAUCACCCAUGUGAGGAUAUGAAAAAGAAAAUAAAAUAAAGAAGAAUCAGAAGGCACAAAGG [Mat - Mod of Hog D4] (puzzle: Exclusion 1) | 34 | 24.9 | 28.1 |  |  |  |
| UCGGCGCGAGGAUAUACGUUUGCGCGUUUUCGUUUGCGCGUACAUGAGGAUCACCCAUGUAGAAGGCGCGCGGC [Apr-15 SS2-13] (puzzle: Exclusion 2) |  | 11.5 |  |  |  |  |
| UAUAUAUAGUAAGGAUAUGUAAAUAUUUUAUAAACAGAAGGUACUGACAUGAGGAUCACCCAUGUUUUAGUGUGGGCAUGUAGA [JMF's solution 28] (Eterna round: R96, puzzle: Exclusion NG 1) |  |  |  |  |  | 66.2 |
| GGAUCGUAUGUCAGGAUAUGCCACUGGAUACAGUGGUAGAAGGGACAUGAGGAUCACCCAUGUCCUACCGAUCC [Fiskers BMX 4 - 50] (puzzle: Brourd's mod of Exclusion 4) |  | 12.4 |  |  |  |  |
| GUUAUACAUGAGGAUCACCCAUGUCAGGAUAUUAUCUAUCUUUGGAAGCAUUGAUCGCUAAGAAGGGACUAGUA [Bubbles2] (Eterna round: R97, puzzle: Exclusion 1) |  |  |  | 28 | 33 |  |
| GGAUCGAGUGUGAGGAUAUGCUGGUCCUUGGAUCAGCAGAAGGCACAUGAGGAUCACCCAUGUGAAGACGAUCC [Eli bmx4 4.55] (Eterna round: R97, puzzle: Brourd's mod of Exclusion 4) |  |  |  | 340 | 40.1 |  |
| GGAUCGAAUGUGAGGAUAUGCUGGUCCUUGGAUCAGCAGAAGGCACAUGAGGAUCACCCAUGUCCAAACGGUCC [Eli bmx4 4.44] (Eterna round: R97, puzzle: Brourd's mod of Exclusion 4) |  |  |  | 352 | 525 |  |

| Sequence | apparent KD of MS2 coat protein [1] [nM] | apparent KD of MS2 coat protein [2] [nM] | apparent KD of MS2 coat protein [3] [nM] | apparent KD of MS2 coat protein (input ligand: FMN 200 uM) [nM] | apparent KD of MS2 coat protein (input ligand: none) [nM] | apparent KD of MS2 coat protein [4] [nM] |
| --- | --- | --- | --- | --- | --- | --- |
| GGUCUUCAAGUCAGGAUAUCGUCUAAUAGAUCUAACGAGAAGGGACAUGAGGAUCACCCAUGUCGUCUCAUCAG [Ex4 #19] (Eterna round: R97, puzzle: Brourd's mod of Exclusion 4) |  |  |  | 34.5 | 16.5 |  |
| CCGAGGAAGCGGUCCUAUGACAUGAGGAUCACCCAUGUACCUCGCUACGAGCUUUUUGCUCGUCUUAUAAUUCUCGG [Mat - Sensor v3 - turn-off var 1 - JL Mod - D28] (puzzle: Sensor v3, turn-off variant 1) | 24.2 | 65.5 |  |  |  |  |
| AGUAACCGUCACGAAAGUGAUGGUUACACAAGCAAUGAAACAUGAGGAUCACCCAUGUCCUCAUUUGCUCGUCUUAU [Sensor 3 - 40] (puzzle: Sensor v3, turn-off variant 2) | 25.5 | 486 | 26.8 |  |  |  |
| CGCCCGGGAGGAUAUCCAAUAUAUGACAUGAGGAUCACCCAUGUUUCCACUCGUACCUCCGGAGAAGGCCCGGCGA [Ex5 #28] (Eterna round: R97, puzzle: Exclusion 5) |  |  |  | 20.2 | 24.9 |  |
| ACAUUUGUAGAGGAUAUCAAGCCCAGGCUCCGUUGAGAAGGUUACACAUGAGGAUCACCCAUGUCCUCCUUACC [Eternabot (L1) Solution 4] (Eterna round: R97, puzzle: Exclusion 6) |  |  |  | 168 | 162 |  |
| CAUGGAUGUGAGCCGCAUUACAUGAGGAUCACCCAUGUCAACAAGCUUUUUGCUUGUCUUACGCGGCGGCAUCAAAA [Geonso] (puzzle: Sensor v3, turn-off variant 1) | 12 | 9.86 | 10.3 |  |  |  |
| AUGCUCCGUGUAGGAUAUCGCCGCAUCACUCGGCGAGAAGGACAUGAGGAUCACCCAUGUAUGUUAUUAUCACGUGUGGCGCGC [Design 44] (Eterna round: R96, puzzle: Exclusion NG 1) |  |  |  | 52.3 | 25.3 | 16.7 |
| CCAAAGUCAGGAUAUGUGCGUUAAAAGCCGUACGUAACGACACAGAAGGGACAUGAGGAUCACCCAUGUUGGUG [Eternabot (Original) Solution 13] (Eterna round: R97, puzzle: Exclusion 4) |  |  |  | 96.7 | 979 |  |
| CAGCAGAGAGGAUAUACUUGAGGAUCACCCAAGUGACACCGCCUGGUGCGAACUUGAAGUAGAAGGUUCGGCUA [Entema] (Eterna round: R97, puzzle: Exclusion 3) |  |  |  | 24.7 | 19.7 |  |
| ACAUGAGGAUCACCCAUGUCCGGCUGGUCCGUUUCGGCUGUCGAGGAUAUAGUUCGGUGUCCGCGCUAGAAGGCGGGAGCUGGC [Aenatbe mod 61] (Eterna round: R96, puzzle: Exclusion NG 3) |  |  |  | 181 | 98.5 | 67 |
| GCUUGACGAGGAUAUGCAUACACUGGAUACAGUGGAAGGUCACAUGAGGAUCACCCAUGUAGAAGGCGUCGAGC [EX2 #40] (Eterna round: R97, puzzle: Exclusion 2) |  |  |  | 123 | 35.4 |  |
| CUAGCGAAUGUAGGAUAUCGGACUGUUUCAGUCUGAGAAGGACAUGAGGAUCACCCAUGUAUUGCUACGUGAGUAGCUCGCUAG [JL ENG1 3.92] (Eterna round: R96, puzzle: Exclusion NG 1) |  |  |  | 32.4 | 18 | 13.7 |
| AGAGAAUAGUCAGGAUAUGAGAAUAGAUAGAGCUCAGAAGGGACACAUGAGGAUCACCCAUGUGAAGUCUUGAGGCUGCGUGGA [Prohibition 20 - Jieux - Exclusion NG 1] (Eterna round: R96, puzzle: Exclusion NG 1) |  |  |  |  |  | 11.3 |
| CCUCCACAUGAGGAUCACCCAUGUCAGGAUAUCGUGUGUUUUUUUUCGGUCUUUCGUGCGAGAAGGGACGUCUG (puzzle: Exclusion 1) |  | 28.1 |  |  |  |  |
| CUAUCAAGCAAGGAUAUGCAAUUUAUUAUUUAUGCAGAAGGUGCAACAUGAGGAUCACCCAUGUUUCUGGGUUU [JR_E6_Sub047] (puzzle: Exclusion 6) |  | 39.5 |  |  |  |  |
| ACAUGACUGCUAGGAUAUAGAUGACAUGAGGAUCACCCAUGUUAUCCCAUGUUGACGGAAACCGACUAGAAGGAGCAGCAUAUG [Ex NG2 #9] (Eterna round: R96, puzzle: Exclusion NG 2) |  |  |  | 118 | 45.3 | 43.5 |
| GGAUUACAUGAGGAUCACCCAUGUCAGGAUAUGAAAGCAUAUGCCGAAAGGCAUAUGCGCAGAAGGGACAAUAU [AK-MS2ROC-r4-exclusion1-3.0] (Eterna round: R97, puzzle: Exclusion 1) |  |  |  | 45.7 | 27.5 |  |
